Data from patent US20230399397A1 (EWHA UNIVERSITY INDUSTRY COLLABORATION FOUNDATION, published 2023).

How the values were obtained:
[1] = molecular target: T1, human OSCAR-Fc (fusion of ectodomain of human-derived OSCAR protein and Fc domain of human immunoglobulin … (human)); experiment: ELISA, periplasm extract of the scFv clone on coated hOSCAR-Fc
T1 construct: also called hOSCAR-Fc; hOSCAR
Procedure: (§1) To select anti-OSCAR antibodies via ELISA screening, first, 200 μL of SB-carbenicillin was added to each well of a 96-well microplate, and E. coli colonies obtained in the third and fourth panning processes were added thereto, followed by incubation at 37° C. for 2 hours while stirring. Using a plate replication pin tool, the cultured clones were transferred to a new microplate, IPTG was added to each well in which E. coli was cultured to a final concentration of 1 mM, followed by incubation […] while stirring. Then, the microplate was centrifuged and the supernatant discarded, and then precipitated E. coli was suspended in 40 μL of ice-cold 1× TES (20% sucrose, 50 mM Tris, 1 mM EDTA, pH 8.0) per well. Then, […] was added to each well, mixed well, and left on ice for 30 minutes, followed by centrifugation of the microplate to obtain a periplasm extract.
(§2) Subsequently, 25 μL of human and mouse OSCAR-Fc and human IgG each diluted in PBS to a concentration of 2 μg/mL were added to each well of a 96-well plate for ELISA and left to stand at 37° C. for 1 hour such that an antigen was adsorbed onto the surface of the well. […] Once a blue color was clearly developed, reaction was terminated by adding 25 μL of 1 N aqueous sulfuric acid solution to each well, and a color change signal was measured using absorbance at a wavelength of 450 nm. […]

[2] = molecular target: T2, mouse OSCAR-Fc (fusion of ectodomain of mouse-derived OSCAR protein and Fc domain of human immunoglobulin … (mouse)); experiment: ELISA, periplasm extract of the scFv clone on coated mOSCAR-Fc
T2 construct: also called mOSCAR-Fc; mOSCAR
Procedure: as §1, §2

[3] = molecular target: T1, human OSCAR-Fc (fusion of ectodomain of …); experiment: BLI (Octet); BLI (Octet); mother clone D11
Procedure: Therefore, based on intensities of the ELISA signals, expression levels, stability, and activity of the clones whose affinity was matured from the clone D11, D11-B9 was selected, and relative affinity thereof to OSCAR was re-evaluated by way of serial dilution. […] To measure a dissociation constant more accurately, analysis was performed by measuring bio-layer interferometry (BLI) signals using an Octet device. […] In the same manner as in the serial dilution ELISA, the clone D11 seems to have a lower affinity to hOSCAR. A dissociation constant was about 5.6 nM, and a lower response signal was measured (FIG. 10).

[4] = molecular target: T1, human OSCAR-Fc (fusion of ectodomain of …); experiment: serial dilution ELISA, 4-parameter logistic curve fit
[5] = molecular target: T1, human OSCAR-Fc (fusion of ectodomain of …); experiment: bio-layer interferometry (Octet), antibody as ligand on the sensor, hOSCAR as analyte
[6] = molecular target: T2, mouse OSCAR-Fc (fusion of ectodomain of …); experiment: bio-layer interferometry (Octet), antibody as ligand on the sensor, mOSCAR as analyte
[7] = molecular target: T1, human OSCAR-Fc (fusion of ectodomain of …); experiment: BLI (Octet)
[8] = molecular target: T2, mouse OSCAR-Fc (fusion of ectodomain of …); experiment: BLI (Octet)
[9] = molecular target: T1, human OSCAR-Fc (fusion of ectodomain of …); experiment: BLI (Octet); BLI (Octet); hOSCAR
[10] = molecular target: T2, mouse OSCAR-Fc (fusion of ectodomain of …); experiment: BLI (Octet); BLI (Octet); mOSCAR
[11] = molecular target: T1, human OSCAR-Fc (fusion of ectodomain of …); experiment: serial dilution ELISA (re-evaluation); re-evaluation by serial dilution (FIG. 10); hOSCAR
[12] = molecular target: T2, mouse OSCAR-Fc (fusion of ectodomain of …); experiment: serial dilution ELISA (re-evaluation); re-evaluation by serial dilution (FIG. 10); mOSCAR
[13] = molecular target: T1, human OSCAR-Fc (fusion of ectodomain of …); experiment: serial dilution ELISA, 4-parameter logistic curve fit; first serial dilution ELISA of the IgG clones (FIG. 9)
Procedure: Next, the EC₅₀ values of the clones were calculated using a 4-parameter logistic curve fit from serial dilution ELISA.

[14] = molecular target: T1, human OSCAR-Fc (fusion of ectodomain of …); experiment: competitive ELISA, IgG premixed with OSCAR-Fc, on coated collagen
Procedure: (§3) Specifically, 25 μL of collagen (collagen type I from rat tail) diluted with PBS to a concentration of 2 μg/mL was added to an ELISA plate and adsorbed onto the ELISA plate by leaving to stand at 4° C. overnight. The surface onto which collagen was not adsorbed was protected by using a 3% milk powder solution. Subsequently, the purified anti-OSCAR IgG antibody and human or mouse OSCAR-Fc [fusion of ectodomain of human and mouse-derived OSCAR protein and Fc domain of human immunoglobulin gamma 1 (human IgG1)][human-derived: hOSCAR-Fc (SEQ ID NO: 4) and mouse-derived: mOSCAR-Fc (SEQ ID NO: 5)] were mixed to have concentrations of 2 μg/mL and 1 μg/mL, respectively, for 1.5 hours to bind to each other. Then, the mixture was added to the collagen-adsorbed ELISA plate from which the powdered milk solution was removed in an amount of […] and left to stand at room temperature for 1.5 hours. Subsequently, the plate was washed three times with PBST to remove unreacted antibodies and OSCAR-Fc, and 25 μL of an HRP-conjugated anti-human IgG antibody diluted at 1:3,000 was added to each well and left to stand at room temperature for 1 hour to detect OSCAR-Fc bound to collagen. […] Absorbance was measured at 450 nm to analyze the degree of OSCAR-collagen binding (FIG. 2).

[15] = molecular target: T2, mouse OSCAR-Fc (fusion of ectodomain of …); experiment: as above
Procedure: as §3

B1: anti-OSCAR scFv B4 (scFv, V domains shown)
VH: EVQLLESGGGLVQPGGSLRLSCAASGFTFSDYAMSWVRQAPGKGLEWVSGIYHGGGNIYYADSVKGRFTISRDNSKNTLYLQMNSLRAEDTAVYYCARAPDEFDYWGQGTLVTVSS
VL: QSVLTQPPSASGTPGQRVTISCSGSSSNIGNNSVTWYQQLPGTAPKLLIYYNSHRPSGVPDRFSGSKPGTSASLAISGLRSEDEADYYCGAWDSSLNGYVFGGGTKLTVL
notes: Single-chain Fv; Tested as periplasm extract
B1: binds [1]; binds [2].

B2: anti-OSCAR antibody D11 (IgG) (antibody, V domains shown)
VH: EVQLLESGGGLVQPGGSLRLSCAASGFTFSDYYWTWVRQAPGKGLEWVSGSPVFGAANYAQNFQGRFTISRDNSKNTLYLQMNSLRAEDTAVYYCAKAGFTGGHFDIWGQGTLVTVSS
VL: QSVLTQPPSASGTPGQRVTISCSGSSSNIGNNYVSWYQQLPGTAPKLLIYGNSNRPSGVPNRFSGSKSGTSASLAISGLRSEDEADYYCQSYDSSSWLFGGGTKLTVLG
notes: also called clone D11; mother-clone D11
For B2, the Kd [3] was ~5.6 nM, the EC50 [4] was 520 nM and the Kd [5] was 5.61 nM. The Kd [6] was 2.87 nM.

B3: anti-OSCAR antibody D11-B9 (IgG) (antibody, V domains shown)
VH: EVQLLESGGGLVQPGGSLRLSCAASGFTFSDYYWTWVRQAPGKGLEWVSGSPVFGAANYAQNFQGRFTISRDNSKNTLYLQMNSLRAEDTAVYYCAKAGIPGHFDIWGQGTLVTVSS
VL: B2 VL
notes: also called clone D11-B9; D11-69 (misprint in the text)
In the case of B3, the “fold affinity against clone D11” value [7] is reported as 10 times, the “fold affinity against clone D11” value [8] is reported as ≥ 10 times and the Kd [9] is reported as 0.4 nM. The Kd [10] was 0.2 nM, the EC50 [11] was 36.8 nM and the EC50 [12] was 36.8 nM. For the same binder, the Kd [5] was 0.41 nM, the Kd [6] was 0.222 nM and the EC50 [13] was 1.5 nM.

B4: anti-OSCAR antibody B4 (IgG) (antibody, V domains shown)
VH: B1 VH
VL: QSVLTQPPSASGTPGQRVTISCSGSSSNIGNNSVTWYQQLPGTAPKLLIYYNSHRPSGVPDRFSGSKPGTSASLAISGLRSEDEADYYCGAWDSSLNGYVFGGGTKLTVLG
notes: also called clone antibody B4
B4: binds [14]; binds [15].
